Assay results as given in publication PMC6781908.

Experiments:
[1] = GFP fluorescence in D-type motor axons; conditions: glycan lost; control: wild-type DDR-2::GFP
[2] = anti-GFP IP, anti-phosphotyrosine blot (autophosphorylation) from worms; conditions: glycan lost; control: wild-type DDR-2::GFP

B1: DDR-2: N141A (protein)
parent chain: MKLLLYLFGVTFHSNTVVALELRECSHQLGMSNRKIRDEQISASSSFDLQSTGPQHARAHQESGSGAWCPKNQINSLSKEWLQISFSVDTVITSVETQGRFDDGRGMEYATAFKIQYWRPSLNAWASYKDDFELETIPANNDTEHAIRRHLDRAIIARRIRIVPVSNSTRTVCMRVEVFGCPFDDSLVFYNVDQGDLQSGISYHDFSYDGNLANSPHLTGGIGKLYDGEVGKNNVFVNHHKWVGWRRKRNGNVKLAFEFSELRNISGILIHTSNEFKKSAKAFSSATVLFSINGKDFSDTIVHFNNPEDTESEVPRWIRIPVNNRIAKVAKIRLNFGTDSDWLFISEVNFESNHTNIELLNDDVVIPDSVSYFSVTEHDDGTSMFAFIIFFFMFLIVAVIILTVLYRKREYRVKASSPSPNAKREILLTIDGNTIKHHVSPSTYQMARDNLQNALIEKMPMSPIISDYAEPDISVCSDVTANTPLLYGIDGPYDTQKRSNPLSSMVKYSDYGEVYCTTLPEIARDKLICVSRIGQGEFGEVDLCQLENRKVAVKKLHGISQADEFSFHREIRVLGSLKHPNVVEVVGVCTIQKPILCIMEYMENGDLKSYILKNPTIQTSQCISICTQLAAGLAYLESCNFVHRDIAARNCLVDGEGNVKIADFGMARSLYSQEYYKVEGKFVLPIRWMAWEALLLGKFSTASDVWGFGVTMWEIFSLCSEKPYSDMTDDDVVENLQSMSSTGSLKQVLSRPRMCPSKLYNEQILPCWNYESSRRPSFENVHLHLQSLVHTSPHIHF
With B1 the localisation_or_trafficking [1] was “no change” and the enzymatic_activity [2] was “no change”.
